Measurements: the supplement of paper PMC7877785
± gives the uncertainty stated by the source.

Assay: self-splicing fitness, log relative to wild type (ln ratio); higher = more splicing; Tetrahymena group I intron in knt gene, E. coli kanamycin selection, DiMSum; sequences stand for … in CUCUCU…GGAGGGAAAAGUUAUCAGGCAUGCACCUGGUAGCUAGUCUUUAAACCAAUAGAUUGCAUCGGUUUAAAAGGCAAGACCGUCAAAUUGCGGGAAAGGGGUCAACAGCCGUUCAGUACCAAGUCUCAGGGGAAACUUUGAGAUGGCCUUGCAAAGGGUAUGGUAAUAAGCUGACGGACAUGGUCCUAACCACGCAGCCAAGUCCUAAGUCAACAGAUCUUCUGUUGAUAUGGAUGCAGUUCACAGACUAAAUGUCGGUCGGGGAAGAUGUAUUCUUCUCAUAAGAUAUAGUCGGACCUCUCCUUAAUGGGAGCUAGCGGAUGAAGUGAUGCAACACUGGAGCCGCUGGGAACUAAUUUGUAUGCGAAAGUAUAUUGAUUAGUUUUGGAGUACUCGUGGUCG
Outline: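 Pooled colonies went to amplicon sequencing on an Illumina HiSeq 2500 after six replicate transformations. The plates were LB agar with 100 μg/mL carbenicillin, 50 μM IPTG and 0.2% rhamnose, with or without 25 μg/mL kanamycin, incubated overnight at 37°C or 30°C. The E. coli BL21(DE3) library had all eight P1ex-region intron nucleotides randomised, the intron placed in the knt kanamycin-resistance gene on pET-22b(+). DiMSum fitness is the error-weighted combination of replicate fold changes, kanamycin against none, normalised to wild type.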

Sequence: AUGCAGCAAUAUUACGUUAA
- self-splicing fitness (ln) (30 °C): -2.58 ± 0.1
- self-splicing fitness (ln) (37 °C): -1.71 ± 0.094

Sequence: AUGCAGCAAUAUUACGUUUA
- self-splicing fitness (ln) (30 °C): -2.04 ± 0.095
- self-splicing fitness (ln) (37 °C): -1.21 ± 0.089

Sequence: AUGGAGCAAUAUUACGAACG
- self-splicing fitness (ln) (30 °C): -2.21 ± 0.25
- self-splicing fitness (ln) (37 °C): -2.35 ± 0.5

Sequence: AUGGAGCAAUAUUACGAAUG
- self-splicing fitness (ln) (30 °C): -3.6 ± 0.34
- self-splicing fitness (ln) (37 °C): -2.35 ± 0.18

Sequence: AUGGAGCAAUAUUACGAAUU
- self-splicing fitness (ln) (30 °C): -3.14 ± 0.47
- self-splicing fitness (ln) (37 °C): -1.14 ± 0.25

Sequence: AUGGAGCAAUAUUACGAGAU
- self-splicing fitness (ln) (30 °C): -3.73 ± 0.28
- self-splicing fitness (ln) (37 °C): -1.96 ± 0.2

Sequence: AUGGAGCAAUAUUACGAUGA
- self-splicing fitness (ln) (30 °C): -2.98 ± 0.41
- self-splicing fitness (ln) (37 °C): -1.36 ± 0.46

Sequence: AUGGAGCAAUAUUACGCUGC
- self-splicing fitness (ln) (37 °C): -2.95 ± 0.38

Sequence: AUGGAGCAAUAUUACGCUUG
- self-splicing fitness (ln) (30 °C): -1.46 ± 0.12
- self-splicing fitness (ln) (37 °C): -0.294 ± 0.12

Sequence: AUGGAGCAAUAUUACGGAUC
- self-splicing fitness (ln) (30 °C): -2.51 ± 0.25
- self-splicing fitness (ln) (37 °C): -2.57 ± 0.36

Sequence: AUGGAGCAAUAUUACGGCAC
- self-splicing fitness (ln) (30 °C): -1.14 ± 0.37
- self-splicing fitness (ln) (37 °C): -0.0162 ± 0.42

Sequence: AUGGAGCAAUAUUACGGCCU
- self-splicing fitness (ln) (30 °C): -1.32 ± 0.19
- self-splicing fitness (ln) (37 °C): -0.862 ± 0.24

Sequence: AUGGAGCAAUAUUACGGGAA
- self-splicing fitness (ln) (30 °C): -2.71 ± 0.2
- self-splicing fitness (ln) (37 °C): -2.33 ± 0.17

Sequence: AUGGAGCAAUAUUACGGGCU
- self-splicing fitness (ln) (37 °C): -1.55 ± 0.41

Sequence: AUGGAGCAAUAUUACGUAAA
- self-splicing fitness (ln) (30 °C): -3.85 ± 0.26
- self-splicing fitness (ln) (37 °C): -2.09 ± 0.26

Sequence: AUGGAGCAAUAUUACGUAAU
- self-splicing fitness (ln) (30 °C): -0.694 ± 0.15
- self-splicing fitness (ln) (37 °C): -0.189 ± 0.12

Sequence: AUGGAGCAAUAUUACGUAGU
- self-splicing fitness (ln) (30 °C): -2.7 ± 0.11
- self-splicing fitness (ln) (37 °C): -1.62 ± 0.097

Sequence: AUGGAGCAAUAUUACGUCUA
- self-splicing fitness (ln) (30 °C): -1.38 ± 0.23
- self-splicing fitness (ln) (37 °C): -0.778 ± 0.19

Sequence: AUGGAGCAAUAUUACGUCUG
- self-splicing fitness (ln) (30 °C): -2.81 ± 0.24
- self-splicing fitness (ln) (37 °C): -2.04 ± 0.25

Sequence: AUGGAGCAAUAUUACGUGAA
- self-splicing fitness (ln) (30 °C): -2.92 ± 0.27
- self-splicing fitness (ln) (37 °C): -2.03 ± 0.42

Sequence: AUGGAGCAAUAUUACGUUCG
- self-splicing fitness (ln) (30 °C): -1.89 ± 0.14
- self-splicing fitness (ln) (37 °C): -0.826 ± 0.19

Sequence: AUGGAGCAAUAUUACGUUUU
- self-splicing fitness (ln) (30 °C): -3.1 ± 0.36
- self-splicing fitness (ln) (37 °C): -2.05 ± 0.31

Sequence: AUGUAGCAAUAUUACGAAAA
- self-splicing fitness (ln) (30 °C): -0.961 ± 0.34
- self-splicing fitness (ln) (37 °C): -0.547 ± 0.31

Sequence: AUGUAGCAAUAUUACGAACG
- self-splicing fitness (ln) (30 °C): -1.27 ± 0.13
- self-splicing fitness (ln) (37 °C): -0.894 ± 0.16

Sequence: AUGUAGCAAUAUUACGAAGG
- self-splicing fitness (ln) (30 °C): -3.73 ± 0.34
- self-splicing fitness (ln) (37 °C): -2.61 ± 0.3

Sequence: AUGUAGCAAUAUUACGAGCA
- self-splicing fitness (ln) (30 °C): -1.07 ± 0.11
- self-splicing fitness (ln) (37 °C): -1.07 ± 0.12

Sequence: AUGUAGCAAUAUUACGAGGC
- self-splicing fitness (ln) (37 °C): -1.47 ± 0.28

Sequence: AUGUAGCAAUAUUACGAGUG
- self-splicing fitness (ln) (30 °C): -2.52 ± 0.12
- self-splicing fitness (ln) (37 °C): -2.72 ± 0.18

Sequence: AUGUAGCAAUAUUACGAUAA
- self-splicing fitness (ln) (30 °C): -1.76 ± 0.13
- self-splicing fitness (ln) (37 °C): -1 ± 0.15

Sequence: AUGUAGCAAUAUUACGAUAC
- self-splicing fitness (ln) (30 °C): -3.33 ± 0.28
- self-splicing fitness (ln) (37 °C): -1.82 ± 0.21

Sequence: AUGUAGCAAUAUUACGAUGC
- self-splicing fitness (ln) (30 °C): -1.49 ± 0.11
- self-splicing fitness (ln) (37 °C): -0.827 ± 0.16

Sequence: AUGUAGCAAUAUUACGCAAC
- self-splicing fitness (ln) (30 °C): -2.69 ± 0.45
- self-splicing fitness (ln) (37 °C): -0.382 ± 0.27

Sequence: AUGUAGCAAUAUUACGCACG
- self-splicing fitness (ln) (30 °C): -1.02 ± 0.11
- self-splicing fitness (ln) (37 °C): 0.147 ± 0.14

Sequence: AUGUAGCAAUAUUACGCAGC
- self-splicing fitness (ln) (30 °C): -2.64 ± 0.37
- self-splicing fitness (ln) (37 °C): -0.433 ± 0.17

Sequence: AUGUAGCAAUAUUACGCAUA
- self-splicing fitness (ln) (30 °C): -2.46 ± 0.28
- self-splicing fitness (ln) (37 °C): -1.85 ± 0.26

Sequence: AUGUAGCAAUAUUACGCCUA
- self-splicing fitness (ln) (30 °C): -0.493 ± 0.17
- self-splicing fitness (ln) (37 °C): 0.198 ± 0.23

Sequence: AUGUAGCAAUAUUACGCGGG
- self-splicing fitness (ln) (30 °C): -4.31 ± 0.33
- self-splicing fitness (ln) (37 °C): -2.37 ± 0.2

Sequence: AUGUAGCAAUAUUACGCUCU
- self-splicing fitness (ln) (30 °C): -1.95 ± 0.13
- self-splicing fitness (ln) (37 °C): -0.655 ± 0.17

Sequence: AUGUAGCAAUAUUACGGACA
- self-splicing fitness (ln) (30 °C): -0.611 ± 0.083
- self-splicing fitness (ln) (37 °C): 0.202 ± 0.12
